From patent US20060058231A1 come the findings set out here.

Where a chain is given by its changes, count along the chain named.

In general, EC50 refers to the concentration giving half of the maximal effect.

The experiment deals with anti-BMP-7 antibodies of the commercial ELISA (R&D Systems ELISA Duoset Cat#DY354). The experiment can be described thus: sandwich ELISA (R&D Systems BMP7 ELISA Cat#DY354), BMP-7 protein titrated, % ELISA signal; the EC50 column carries no unit, the concentration axis is in ug/mL. A general note: An ELISA detects its analyte on a solid surface through an enzyme-linked reagent.

B1: 492 (ligand)
BMP-7 mature domain: STGGKQRSQNRSKTPKNQEALRMASVAENSSSDQRQACKKHELYVSFRDLGWQDWIIAPEGYAANYCEGECAFPLNSHMNATNHAIVQTLVHFINPETVPKPCCAPTQLNAISVLYFDDSSNVILKKYRNMVVRACGCH
As to B1, the EC50 is 1.74 ng/mL.

B2: 471 (ligand)
BMP-7 mature domain: B1 BMP-7 mature domain with K39S, N65Y, H78Y, N130D
B2 showed a half-maximal effective concentration (EC50) of 0.755 ng/mL.
